Source: PMC2970747

Target: FLAG-Mfn2 (UniProt O95140)
Test: co-IP

UniProt O95140, sequence (O95140 whole entry): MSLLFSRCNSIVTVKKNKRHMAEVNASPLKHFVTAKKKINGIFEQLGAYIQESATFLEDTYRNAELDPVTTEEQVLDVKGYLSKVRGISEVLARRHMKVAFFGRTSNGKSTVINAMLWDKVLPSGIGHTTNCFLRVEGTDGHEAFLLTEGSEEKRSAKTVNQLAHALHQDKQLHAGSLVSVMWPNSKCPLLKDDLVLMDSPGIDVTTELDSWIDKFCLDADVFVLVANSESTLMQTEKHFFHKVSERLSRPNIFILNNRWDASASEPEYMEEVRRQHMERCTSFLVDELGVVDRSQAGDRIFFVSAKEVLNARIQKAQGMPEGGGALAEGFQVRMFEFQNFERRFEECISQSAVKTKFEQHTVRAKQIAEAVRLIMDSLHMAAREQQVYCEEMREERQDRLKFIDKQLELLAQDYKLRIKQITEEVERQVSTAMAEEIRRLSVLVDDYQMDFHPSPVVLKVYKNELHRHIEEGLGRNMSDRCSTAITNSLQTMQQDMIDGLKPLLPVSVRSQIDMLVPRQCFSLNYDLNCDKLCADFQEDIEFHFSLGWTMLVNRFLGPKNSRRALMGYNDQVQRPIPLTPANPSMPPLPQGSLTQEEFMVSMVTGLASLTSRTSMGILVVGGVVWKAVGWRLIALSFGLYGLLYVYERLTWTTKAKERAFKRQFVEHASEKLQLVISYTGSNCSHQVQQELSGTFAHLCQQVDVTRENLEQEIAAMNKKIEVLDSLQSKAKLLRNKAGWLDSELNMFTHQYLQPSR

percent of GFP-Bcl-xL/Bax H5 bound to FLAG-Mfn2: 3%
Substance: GFP-Bcl-xL/Bax H5
